This note sets out measurements from patent publication US20090130114A1 (Amgen, published 2009).

The target in experiment [1] is T1, T49 tryptic fragment of human WISE (human).
T1 construct: Multiply truncated human WISE from tryptic digestion, isolated by HPLC; the two pieces are held together by cystine-knot disulfide bonds (C1-C5, C2-C6, C3-C7); also called T49 peptide
Kind of experiment: Biacore peptide competition (FIG. 9B). On the procedure:
(§1) To identify which peptides compete with WISE for binding to the antibodies of the invention, rhuWise was immobilized on a CM5 surface with high density. 3 nM of mature antibodies Ab-A, Ab-C and Ab-E were pre-incubated with and without 30 nM peptides and huWise (as control), then injected over the huWise surfaces. As shown in FIGS. 9A and B both T49 and T56.1 peptides blocked the binding of the antibodies to huWISE.

Experiment [2] addresses T2, T56.1 tryptic fragment of human WISE (human).
T2 construct: Multiply truncated human WISE from tryptic digestion, isolated by HPLC; the two pieces are held together by cystine-knot disulfide bonds; also called T56.1 peptide
Kind of experiment: Biacore peptide competition (FIG. 9B). As to the method:
as §1
For orientation: Surface plasmon resonance follows binding to a sensor surface in real time, without labels.

The target of another experiment is T3, mouse WISE (mouse, UniProt Q9CQN4 24-206).
T3 construct: Recombinant purified protein; also called muWISE; mWISE
T3 sequence: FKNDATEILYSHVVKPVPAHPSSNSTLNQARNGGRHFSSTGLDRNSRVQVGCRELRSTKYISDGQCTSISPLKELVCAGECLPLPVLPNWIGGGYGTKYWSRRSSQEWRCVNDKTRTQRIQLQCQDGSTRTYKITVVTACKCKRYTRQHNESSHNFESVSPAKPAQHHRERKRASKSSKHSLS
Kind of experiment: KinExA solution equilibrium, rmuWise-coated beads. On the procedure: (§2) Binding of muAbs with rhuWise and rmuWise were tested on KinExA. Azlactone beads (Pierce) was pre-coated with rhuWise/rmuWise at pH9.0 and blocked with ethanolamine, then further washed with sample buffer (0.1 mg/mL Heparin in BSA/P20/PBS solution). 10 pM and 100 pM of Ab-A, Ab-C and Ab-E were incubated with various concentrations (0.1 pM-3 nM) of rhuWise/rmuWise at room temperature for at least 10 hours before run through the rhuWise/rmuWise coated beads.
(§3) The amount of the bead-bound muAbs were quantified by fluorescent (Cy5) labeled goat anti-mouse IgG (H+L) antibody (Jackson Immuno Research). The binding signal is proportional to the concentration of free muAbs at binding equilibrium. Equilibrium dissociation constant (Kd) was obtained from nonlinear regression of the competition curves using a two-curve one-site homogeneous binding model (KinExA™ Pro software).
(In general: Kinetic exclusion samples the free partner from a solution-phase mixture.)

The target in the next experiment is T4, human WISE (human, UniProt Q6X4U4 24-206).
T4 construct: Recombinant, made in E. coli or mammalian cells; biotinylated in the ELISAs, amine-coupled to CM5 in Biacore; also called huWise; huWISE
T4 sequence: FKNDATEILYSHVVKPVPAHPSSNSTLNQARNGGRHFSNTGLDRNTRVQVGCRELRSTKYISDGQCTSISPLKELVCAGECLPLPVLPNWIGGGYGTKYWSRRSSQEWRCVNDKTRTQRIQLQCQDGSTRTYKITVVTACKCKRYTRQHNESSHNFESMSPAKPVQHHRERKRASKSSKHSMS
Kind of experiment: KinExA solution equilibrium, rhuWise-coated azlactone beads. As to the method: as §2, §3

Experiment [3] has as its target T1, T49 tryptic fragment of human WISE. Kind of experiment: Biacore peptide competition, 3 nM antibody preincubated with 30 nM peptide. On the procedure: as §1
The target of experiment [4] is T2, T56.1 tryptic fragment of human WISE. The description is as above. On the procedure: as §1

B1: Ab-P (antibody, V domains shown)
VH: EVRLVESGGGLVQPGRSLKLSCAASGFPFSNYGMAWVRQAPTRGLEWVASITYDGSITFYRDSVKGRFTISRDNAKSTLYLQMDSLRSEDTATYYCTSSDTTDYYHGGFWFAYWGQGTLVTVSS
VL: DIVLTQSPALAVSLGQRATLSCRASQSVSISGHNLMHWYQQKPGQQPKLLIYRASNLPSGIPARFSGSGSGTGFTLTINPVQADDIATYYCQQSRESPWTFGGGTTLELKR
notes: also called Antibody P
For the molecule B1, the binding result in experiment [1] and in experiment [2] was “binds” each time.

B2: Ab-A (antibody, V domains shown)
VH: QIHLVQSGPELKKPGETVKISCKASGFSFTTYGMSWVKQAPGKGLKWMGWINTYSGVPTYADDFKGRFAFSLETSASTAYLQINNLKNEDTATYFCVRGREYYYGSGIAFWGQGTLVTVSA
VL: DVVMTQTPLSLPVSLGDQASISCRSSQSLEHSNGNTYLHWYLQKPGQSPKLLIYKVSNRFSGVPDRFSGSGSGTDFTLKISRVEAEDLGVYFCSQSTHVPLTFGAGTKVELKR
notes: Murine monoclonal antibody from hybridoma, tested in its mature form; The entries may still carry a signal peptide; also called Antibody A; antibody A
As a reminder, the Kd is the equilibrium constant for the complex coming apart. Low readings indicate tighter binding, high ones weaker binding. B2: the binding result (in the experiment with mouse WISE; in experiment [3]; in experiment [4]) was “binds” in each case. In addition, in the experiment with human WISE, the Kd was around 2 pM.

B3: Ab-C (antibody, V domains shown)
VH: QGQMQQSGAELVKPGASVQLSCKTSGFTFSSTYISWLKQKPGQSLEWIAWIYAGTGGTRYNRKFTGKAQLTVDTSSSTAYMQFSSLTTEDSAIYYCAREGVDGWFTYWGQGTLVTVSA
VL: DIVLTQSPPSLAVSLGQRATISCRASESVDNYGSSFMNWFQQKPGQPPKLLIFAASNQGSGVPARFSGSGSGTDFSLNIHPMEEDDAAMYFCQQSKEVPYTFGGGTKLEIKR
notes: Murine monoclonal antibody from hybridoma, tested in its mature form; also called Antibody C; antibody C
Turning to B3, the binding result (in the experiment with mouse WISE; in experiment [3]; in experiment [4]) was “binds” in each case. Further, the Kd in the experiment with human WISE was around 4 pM.

B4: Ab-E (antibody, mouse IgG1, kappa, V domains shown)
VH: QGQMQQSGAELVKPGASVKLSCKTSGFTFNSHYISWLKQKPGQTLEWIAWIYAGTGGTRYNQKFTGKAQLTVDTSSSTAYMQFSSLTTEDSAIYYCAREGVDGWFTYWGQGTLVTVSA
VL: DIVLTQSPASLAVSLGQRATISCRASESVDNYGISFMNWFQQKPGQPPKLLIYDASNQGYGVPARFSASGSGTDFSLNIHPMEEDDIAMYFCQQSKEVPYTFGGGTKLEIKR
notes: Murine monoclonal antibody from hybridoma, tested in its mature form; polypeptide numbers 26 and 28 and the light/heavy assignment are inferred; also called Antibody E; antibody E
Take B4: the binding result (with mouse WISE; in experiment [3]; in experiment [4]) was “binds” each time. The molecule further gave a Kd with human WISE of around 18 pM.
